Measured values from the domain aggregation screens of Martell et al. (2025).

assay: soluble fraction after stress (log2 fold change); higher = more stays soluble; pooled small domains, quantitative proteomics; details: stress: 50 degC
In short: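 The stress applied to every library was 50°C. These custom libraries of small protein domains were pooled and measured at high throughput with quantitative proteomics as the read-out. Aggregation propensity is expressed as the base-two logarithm of the fold change in how much of each protein remains soluble. The higher the value, the more of that protein stays in solution.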

Row | Sequence | soluble fraction (log2)
1 | HMNSEPKTKLQEIAQERGLAAPVYETTHTGPDHDRIFSASVTVGDVVAAGEARSRKGAESEAAIAAIKALG | 0.212
2 | HMNSFGWESLIDKEGIADTDLHPSGWVRIDDRRIFVVSEGDFIDKGSGVTVLSVDGNRVVVRELI | -0.836
3 | HMNSHLEEGRHGLQIGDPGIVRARIESDPEGETDMPVVVIDGRNISWNEFGRMVATYTGFQFKLEM | -0.515
4 | HMNSHQNELDNALTEAHTASRRLLEGTDEYLDLSSQPAYIRRLQHLLAQKYNLGSLSSGVEPNRHIRLLQ | -0.143
5 | HMNSIDIENELVKIIEKNGQPMSFDDLVFKLDSLYSTRYKFAKGYIRTIILNSNRIASIGKTSTYSLYKWN | -2.25
6 | HMNSKKETLLSYLYNHSTWSSRNDLSNFLNVSTRQVTNYINEINKNETIVLSSNKGYKINPKFIGKN | -0.611
7 | HMNSKMTYSDLIGNIEQGNVSSVELASDGKSATVTLTDNSQKQVNIPSLDSFVTYVQDHIKAGTLSVEE | 0.000127
8 | HMNSKSDDELLSKTTSLLIHAAKIDENYTDKEKEIIKKTLIQLGVKESKADQIMLTAEINEE | ≥ 0.62
9 | HMNSKYILLQVSDIPKTSLVLERQFGVTEYSVQDEHTLRIYDTSLDMAAVNKALVVQDIAVISSQL | -0.353
10 | HMNSLFPLSLKYLREQANITQAELAQKLDVTQQAVGRWERGQTSPDYETLKRLSVLFNVSVDYLLGV | -0.304
11 | HMNSNIIKTINDELSIRKGKYGPYIMYKTKKMKRPKFKSIGDNTPDEFLADKGSISEIILWIN | -0.444
12 | HMNSSHRLIGLDPGLRVTGWGIVDAIGTKLVHVANGSVKSQQNAPLATRLLELENGLEEVFDNWQPDFA | 0.148
13 | HMNSVLPQEVKSSLNDFFTKYAPGSIAQKLINHASFTGGKVVVTGVELTQTQADDLKKAFKDKFF | 0.000827
14 | HMNSVTLEHIVYDFRVFNMLKGSGINDIDELIKAAEDGRLFKIIGSNLTYKRIKKSAAEFGVILPDKPG | -0.351
15 | HMNSVYTPDPKELAKAIKIVTAAREAEQKGQGVIAVDGRMVDAPVVSQALRILELARLAGMEVSE | 0.0244
16 | HMNTAIPIAIDQLRIGMYIQLGLNWMSHPFPVSSFRIASESQIEILRGLGLAEVRYVPAKSDPVP | -2.88
17 | HMNTDEYEQKRGEILDAAQRLIYTKGYERMSIQDILDELKISKGAFYHYFDSKQSLLEALTARMMTE | -0.101
18 | HMNTDIHRLLDEAFVRVDMTPDAQHLKEEIRANLVARVDELEASGVPSADAARRAIAELGDVRELL | 0.17
19 | HMNTFDLSKLEEIILASRDKAMKTKEFTELDNLKNLFITAGLDVQMSKNGIKLIKGPKFNSSLLEDF | -0.655
20 | HMNTIIIDILPKGLSIAGNQTEPKSLIQQLLMARRADPAQPILLRPAIAVPVQNVVELIDRLTAAGI | -0.221
21 | HMNTISEADAKRIALERAGLTAADYVKVDYDQDDNEYEVEMRSGNTEYEVKISGSTGAVLEYDSETD | 0.149
22 | HMNTISTLEITTKKDIRILDESELLKSKSSKNNIFNYLLASGDFNLLKDKLNEIDEFSDEIISYQLN | -0.611
23 | HMNTKQRTAVMRILKQSSDPVSADDVFAALKDEYPSLALSTVYRNLERFADESMVKKDVWSDGIVRYSLAD | -0.189
24 | HMNTLGTNIAKLRESQKLTQEELGKLSGVSRVSIYKIETGQSTPRDTTLQNIAEALHTTPSALRS | 0.142
25 | HMNTLLYAPKVSPNPFTPNADGINDVVNISYKLLRVISAVPISVEVFDLSGRLIKTLYSGVDPLGEY | 0.158
26 | HMNTLPASVQPKKGRLYAVIQTKENGKSKPVWRSLGLPEGSNKSKVNKAFREVVKQFEEEYAERLAR | 0.0511
27 | HMNTLPTDELMKYGIINEDLSFSKKLNADDIQKFLQGYTIVADNDKNRATFQLTENNTKLKVIFLER | -0.438
28 | HMNTLRFPEGTPEKDRMSIILASYNSGIGHVNDARRLARLNGEDPNSWEVVARYLQLKAQPEYYESEAVK | -0.0728
